Two molecules from patent publication US20250215098A1 (QYUNS THERAPEUTICS, published 2025) can be followed below.

This assay has as its target T1, human IL-36R on HT29 cells, HT29 reporter gene cells, A431 cells and human PBMC (human, UniProt Q9HB29 20-575).
T1 sequence (looked up): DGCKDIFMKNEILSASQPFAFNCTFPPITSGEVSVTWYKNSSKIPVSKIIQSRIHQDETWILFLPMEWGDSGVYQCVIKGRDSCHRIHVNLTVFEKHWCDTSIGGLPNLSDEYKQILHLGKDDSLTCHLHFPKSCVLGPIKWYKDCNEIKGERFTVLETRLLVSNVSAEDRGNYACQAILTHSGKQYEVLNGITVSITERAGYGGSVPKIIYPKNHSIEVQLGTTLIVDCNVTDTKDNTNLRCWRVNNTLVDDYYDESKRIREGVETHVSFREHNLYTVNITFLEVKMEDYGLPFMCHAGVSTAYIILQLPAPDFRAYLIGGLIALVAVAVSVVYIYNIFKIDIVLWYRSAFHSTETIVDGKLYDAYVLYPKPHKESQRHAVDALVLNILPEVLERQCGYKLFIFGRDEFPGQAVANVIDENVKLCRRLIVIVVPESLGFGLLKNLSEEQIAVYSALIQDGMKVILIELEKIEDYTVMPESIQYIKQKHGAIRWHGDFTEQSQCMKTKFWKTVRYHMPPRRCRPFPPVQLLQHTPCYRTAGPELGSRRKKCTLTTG
Kind of assay: cell-based or functional assay.

B1: Spesolimab (expressed from the B6 sequence of patent US9023995B2) (antibody, V domains shown)
VH: QVQLVQSGAEVKKPGASVKVSCKASGYSFTSSWIHWVKQAPGQGLEWMGEINPGNVRTNYNENFRNKVTMTVDTSISTAYMELSRLRSDDTAVYYCTVVFYGEPYFPYWGQGTLVTVSS
VL: QIVLTQSPGTLSLSPGERATMTCTASSSVSSSYFHWYQQKPGQAPRLWIYRTSRLASGVPDRFSGSGSGTDFTLTISRLEPEDAATYYCHQFHRSPLTFGAGTKLEIK
In the case of B1, the “IC50 in inhibiting CXCL-1 release from A431 cells induced by the human IL-36 (α, β, γ)” value came out at 12.3 ng/mL; the “IC50 in inhibiting CXCL-1 release from HT29 cells induced by the human IL-36 (α, β, γ)” value is 12.3 ng/mL; the “IC50 in inhibiting IL-8 release from A431 cells induced by the human IL-36 (α, β, γ)” value was determined as 11.5 ng/mL; the “IC50 in inhibiting IL-8 release from HT29 cells induced by the human IL-36 (α, β, γ)” value was determined as 11.5 ng/mL. Further, the “IC50 in inhibiting IL-8 release from human PBMC cells induced by the human IL-36β” value worked out at 26.6 ng/mL and the “IC50 in inhibiting STAT3 phosphorylation in HT29 reporter cells induced by human IL-36 (α, β, γ)” value worked out at 15.7 ng/mL.

B2: QX009N (HZD25-54) (antibody, human IgG1, kappa, L234A L235A, V domains shown)
VH: EVQLVESGGGLVQPGGSLRLSCAASGIDLSNYAMGWVRQAPGKGLEWVGYISGGGSAYYASWAKGRFTISRDNSKNTLYLQMNSLRAEDTAVYYCARWAIKSYFFGMDLWGQGTLVTVSS
VL: DIQMTQSPSSVSASVGDRVTITCQASEYISSYLAWYQQKPGKAPKLLIYQASTLASGVPSRFSGSGSGTDFTLTISSLQPEDFATYYCQTNNAIHTYGGAFGGGTKVEIKR
With B2, the “IC50 in inhibiting CXCL-1 release from A431 cells induced by the human IL-36 (α, β, γ)” value was found to be 4.12 ng/mL; the “IC50 in inhibiting CXCL-1 release from HT29 cells induced by the human IL-36 (α, β, γ)” value came out at 2.21 ng/mL; the “IC50 in inhibiting IL-8 release from A431 cells induced by the human IL-36 (α, β, γ)” value was 2.89 ng/mL; the “IC50 in inhibiting IL-8 release from HT29 cells induced by the human IL-36 (α, β, γ)” value turned out to be 1.53 ng/mL. In addition, the “IC50 in inhibiting IL-8 release from human PBMC cells induced by the human IL-36β” value amounted to 4.69 ng/mL and the “IC50 in inhibiting STAT3 phosphorylation in HT29 reporter cells induced by human IL-36 (α, β, γ)” value was determined as 2.16 ng/mL.
